Molecular target: T1, translation initiation factor IF3 (Escherichia coli) (UniProt P0A707)
T1 sequence: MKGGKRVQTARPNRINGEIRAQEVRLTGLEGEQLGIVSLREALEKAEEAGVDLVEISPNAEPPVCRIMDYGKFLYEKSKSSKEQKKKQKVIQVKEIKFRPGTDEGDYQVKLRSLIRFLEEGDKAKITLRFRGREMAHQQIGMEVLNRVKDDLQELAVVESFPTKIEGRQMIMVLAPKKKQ
Test: fluorescence anisotropy
Settings: Binding buffer and temperature not given in material; EMSA gels in Tris/acetate or Tris/borate; anisotropy with 200 nM RNA and DFHBI-1T; protein storage buffer …

## GGGUGGUAACUAGCCAAGCAGCUAGUUACCAAAUCGGGAGAAUCCCGGGUCCUCUCUUUAGGGGGAGGUCCCUGGGCCGAAGCCCGCCCACCUUUCGGUGGAGCCGGACCGCUUUCGCACCCGUGCUCUUUCGAGCACACCCACCCCGUUUACGGGGGUCCCUCGGUCAGCUACCGAGGAGUUGCCAUGUGUAUGUGGGAGACGGUCGGGUCCAGAUAUUCGUAUCUGUCGAGUAGAGUGUGGGCUCCCACAUACUCUGAUGAUCCUUCGGGAUCAUUCAUGGCAAAAACCUCCUAGGAAUGGAAUUCCGGCUACCUACAGCGAUAGCCAUGGUAGCGUCUCGCUAAAGACAUUAAAAAUGGCAUUAGCUCGACAGGAAGUUGAGCAGGACCCCGAAAGGGGUCCCACCC [[F30-Bro(+)]UTR(-)]
  Kd: 3.5 µM

From publication PMC8956599
